Starred links: 1 amine or outer side, 2 acyl side, 3 side chain; linkers in the order of their positions; H or OH if unused. Positions of bridges follow the written chain, without caps; N, C: chain ends. Non-standard residues stand in square brackets, D forms with d. Primed or numbered codes have the meaning given here. Chains are numbered I, II in the order given. No end group written: not given here. Lig′ = lysine with a 2-aminohydroxyacetyl group (CO-CH2-O-NH2) on the side-chain amino group, O=C(CON[*:3])NCCCC[C@H](N[*:1])C(=O)[*:2]; Hyp = O=C(O)[C@@H]1C[C@@H](O)CN1; Tic = O=C(O)[C@@H]1Cc2ccccc2CN1; Cha = N[C@@H](CC1CCCCC1)C(=O)O; linker 14 = not defined here; Ac6c = NC1(C(=O)O)CCCCC1; Aic′ = not defined here; Aib = CC(C)(N)C(=O)O
B1: S229 (peptide)
peptide 1: SDGFYNAIELLSX
peptide 2: KHLCVLEELFWGASLFGYCSGKKX
modifications: not fully specified; C-terminal Lig′ coupled to linker 12
notes: heterodimer F2-F4, C-C
B2: S293 (peptide)
peptide 1: XGGGFHENFYDWFVRQVSKK
peptide 2: XGGGFHENFYDWFVRQVSKK
modifications: not fully specified; N-terminal Lig′ coupled to linker 13
notes: dimer, N-N
B3: S233 (peptide)
peptide 1: FHENFYDWFVRQVSKKX
peptide 2: SDGFYNAIELLSX
modifications: not fully specified; C-terminal Lig′ coupled to linker 14
notes: heterodimer F1-F2, C-C
B4: S292 (peptide)
peptide 1: XGGGFHENFYDWFVRQVSKK
peptide 2: XGGGFHENFYDWFVRQVSKK
modifications: not fully specified; N-terminal Lig′ coupled to linker 12
notes: dimer, N-N
B5: S255 (peptide)
peptide 1: SDGFYNAIELLSGGGX
peptide 2: SDGFYNAIELLSGGGX
modifications: not fully specified; C-terminal Lig′ coupled to linker 14
notes: dimer, C-C
B6: S218 (peptide)
peptide 1: AFYDWFAKK[Lig′]
peptide 2: AFYDWFAKK[Lig′]
modifications: linker I:10-II:10 via linker 14; not fully specified; reading uncertain
notes: dimer, C-C
B7: S169 (peptide)
peptide 1: XFHENFYDWFVRQVSKK
peptide 2: XFHENFYDWFVRQVSKK
modifications: N-terminal Lig coupled to linker 12
notes: dimer, N-N
B8: S290 (peptide)
peptide 1: XGGGFHENFYDWFVRQVSKK
peptide 2: XGGGFHENFYDWFVRQVSKK
modifications: not fully specified; N-terminal Lig′ coupled to linker 7
notes: dimer, N-N
B9: S231 (peptide)
peptide 1: FHENFYDWFVRQVSKKGGGX
peptide 2: FHENFYDWFVRQVSKKGGGX
modifications: not fully specified; C-terminal Lig′ coupled to linker 14
notes: dimer, C-C
B10: S301 (peptide)
peptide 1: XDWLQRNANFYDWFVAEL
peptide 2: XDWLQRNANFYDWFVAEL
modifications: N-terminal Lig′ coupled to linker 14
notes: dimer, N-N
B11: S170 (peptide)
peptide 1: CGFHENFYDWFVRQVSKK
peptide 2: CGFHENFYDWFVRQVSKK
modifications: bridge I:1-II:1; also: homodimer, N-N, linked at cysteines, type of link not given here
notes: dimer, N-N; also called 3170 (so in the source)
B12: S172 (peptide)
peptide 1: XFHENFYDWFVRQVSKK
peptide 2: XFHENFYDWFVRQVSKK
modifications: N-terminal Lig coupled to linker 14
notes: dimer, N-N

biological target: T1, human insulin receptor (HIR) (human, UniProt P06213 28-1382, limits assumed); test: 125I-insulin displacement, solubilised HIR
T1 construct: Detergent-solubilised receptor; The natural receptor is an alpha2-beta2 heterotetramer cleaved from one precursor

Question: For D[Aic′]D[Aib]EFYDWFDE[dI]P[dQ] [S319], which Kd is on record?
Answer: Its Kd is 870 nM.

Question: How did the Kd turn out when RWPNFYGYFESLLTHFS [S257] was run?
Answer: Its Kd is 14000 nM.

Question: For NANFYDWFVAELG [S241], which Kd is on record?
Answer: The Kd was 1600 nM.

Question: For SDGFYNA[Ac6c]ELLSG (printed: SDGFYNA-Acy-ELLSG) [S302], which Kd is on record?
Answer: The Kd was 860 nM.

Question: With QAPSNFYDWFVREWDEE [S287] as the binder, how does the Kd read?
Answer: The Kd was 5900 nM.

Question: Which Kd does the source give for DWLQRNANFYDWFVAELG [S236] here?
Answer: Its Kd is 100 nM.

Question: With QLEEEWAGVQCEVYGRECPS [S226] as the binder, how does the Kd read?
Answer: The Kd was 1600 nM.

Question: How did the Kd turn out when EHWNTVDPFYQYFSELLRESG [S178] was run?
Answer: Its Kd is 130 nM.

Question: With FHENFYDWFVRQASKK [S106] as the binder, how does the Kd read?
Answer: Its Kd is 420 nM.

Question: With IQGWEPFYGWFDDVVAQMFEE [S264] as the binder, how does the Kd read?
Answer: The Kd was 190 nM.

Question: Which Kd does the source give for B1 here?
Answer: Its Kd is 44 nM.

Question: FAENFYDWFVRQVSKK [S112] was tested. Which Kd did it give?
Answer: The Kd was 610 nM.

Question: Which Kd does the source give for B2 here?
Answer: Its Kd is 120 nM.

Question: How did the Kd turn out when DWLQRNANFYDWFVAELX (C-terminal Lig′) [S294] was run?
Answer: The Kd was 130 nM.

Question: For SDGFYNAIELLS [S118], which Kd is on record?
Answer: Its Kd is 2400 nM.

Question: How did the Kd turn out when B3 was run?
Answer: The Kd was 260 nM.

Question: How did the Kd turn out when FHENFYDWFVRAVSKK [S107] was run?
Answer: The Kd was 1000 nM.

Question: For HPPLSELKLFLIKK [S124], which Kd is on record?
Answer: Its Kd is 23000 nM.

Question: With WQGYAWLS [S316] as the binder, how does the Kd read?
Answer: The Kd was 7000 nM.

Question: For SLNFYDALQLLAKK [S119], which Kd is on record?
Answer: Its Kd is 1800 nM.

Question: For HPSTNQMLMKLFK [S123], which Kd is on record?
Answer: The Kd was 16000 nM.

Question: Which Kd does the source give for NGVERAGTGDNFYDWFVAQLH [S176] here?
Answer: The Kd was 470 nM.

Question: ANFYDWFVAELG [S242] was tested. Which Kd did it give?
Answer: The Kd was 2000 nM.

Question: Which Kd does the source give for LDRQFYRYFQDLLVGFM [S260] here?
Answer: The Kd was 2300 nM.

Question: FHENFYDWFVAQVSKK [S108] was tested. Which Kd did it give?
Answer: The Kd was 750 nM.

Question: For RVDWLQRNANFYDWFVAELG [S234], which Kd is on record?
Answer: The Kd was 130 nM.

Question: B4 was tested. Which Kd did it give?
Answer: Its Kd is 750 nM.

Question: With GRVDWLQRNANFYDWFVA [S250] as the binder, how does the Kd read?
Answer: The Kd was 8900 nM.

Question: B5 was tested. Which Kd did it give?
Answer: Its Kd is 1600 nM.

Question: B6 was tested. Which Kd did it give?
Answer: Its Kd is 11000 nM.

Question: For QSDSGTVHDRFYGWFRDTWAS [S179], which Kd is on record?
Answer: Its Kd is 540 nM.

Question: Which Kd does the source give for EHWNTVDPFYFTLFEWLRESG [S177] here?
Answer: The Kd was 2700 nM.

Question: B7 was tested. Which Kd did it give?
Answer: The Kd was 580 nM.

Question: [Ac6c]CLEEWGASL[Tic]QCSG (cysteine pairing not given here) [S256] was tested. Which Kd did it give?
Answer: Its Kd is 9000 nM.

Question: FHENFYDWFVRQVSK (also called D117/H2C) [S158] was tested. Which Kd did it give?
Answer: The Kd was 810 nM.

Question: WLEHEWAQIQCELYGRGCTY [S285] was tested. Which Kd did it give?
Answer: The Kd was 830 nM.

Question: How did the Kd turn out when HPTSKEIYAKLLK [S122] was run?
Answer: The Kd was 9300 nM.

Question: GRVDWLQRNANFYDWFVAE [S249] was tested. Which Kd did it give?
Answer: Its Kd is 740 nM.

Question: Which Kd does the source give for B8 here?
Answer: The Kd was 900 nM.

Question: SGPFYEE[Ac6c]ELLW[Aib]G (printed: SGPFYEE-Acy-ELLW-Aib-G) [S303] was tested. Which Kd did it give?
Answer: The Kd was 5700 nM.

Question: How did the Kd turn out when TGHRLGLDEQFYWWFRDALSG [S265] was run?
Answer: Its Kd is 110 nM.

Question: Which Kd does the source give for NSFYEALRMLSSK [S121] here?
Answer: The Kd was 3100 nM.

Question: Which Kd does the source give for RD[Hyp]FYDWFDD[dI] (printed: RD-Hyp-FYDWFDDi) [S268] here?
Answer: The Kd was 450 nM.

Question: With EFHENFYDWFVRQVSEE [S115] as the binder, how does the Kd read?
Answer: Its Kd is 650 nM.

Question: LQRNANFYDWFVAELG [S238] was tested. Which Kd did it give?
Answer: The Kd was 850 nM.

Question: PLAELWAYFEHSEQGRSSAH [S174] was tested. Which Kd did it give?
Answer: Its Kd is 16000 nM.

Question: DLRVLCELFGGAYVLGYCSE [S281] was tested. Which Kd did it give?
Answer: Its Kd is 11000 nM.

Question: For B9, which Kd is on record?
Answer: The Kd was 270 nM.

Question: Which Kd does the source give for B10 here?
Answer: The Kd was 640 nM.

Question: QSFYDYIEELLGGEWKK [S288] was tested. Which Kd did it give?
Answer: Its Kd is 4300 nM.

Question: How did the Kd turn out when GRVDWLQRNANFYDWFV [S251] was run?
Answer: The Kd was 5600 nM.

Question: With CGFHENFYDWFVRQVSKK (also called 3171 (so in the source)) [S171] as the binder, how does the Kd read?
Answer: The Kd was 2900 nM.

Question: For N[Aib]PFYDE[Ac6c]DE[Cha]W[Aib]G (printed: N-Aib-PFYDE-Acy-DE-Cha-W-Aib-G) [S305], which Kd is on record?
Answer: Its Kd is 840 nM.

Question: Which Kd does the source give for GRVDWLQRNANFYDWFVAE[Ac6c]G [S306] here?
Answer: The Kd was 2200 nM.

Question: For FHENFYDWFVRQVAKK [S105], which Kd is on record?
Answer: The Kd was 310 nM.

Question: For WLQRNANFYDWFVAELG [S237], which Kd is on record?
Answer: Its Kd is 850 nM.

Question: AHENFYDWFVRQVSKK [S113] was tested. Which Kd did it give?
Answer: Its Kd is 590 nM.

Question: Which Kd does the source give for VDWLQRNANFYDWFVAELG [S235] here?
Answer: Its Kd is 53 nM.

Question: How did the Kd turn out when SSNFYQALMLLS [S129] was run?
Answer: Its Kd is 2900 nM.

Question: With GRVDWLQRNANFYDWFVAEL [S248] as the binder, how does the Kd read?
Answer: The Kd was 63 nM.

Question: For B11, which Kd is on record?
Answer: The Kd was 700 nM.

Question: With AAAAFYDWFAAAAAKK [S168] as the binder, how does the Kd read?
Answer: The Kd was 3800 nM.

Question: For HETFYSMIRSLAK [S117], which Kd is on record?
Answer: Its Kd is 2700 nM.

Question: With GGSFYDD[Ac6c]E[Aib]LW[Aib]G (printed: GGSFYDD-Acy-E-Aib-LW-Aib-G) [S304] as the binder, how does the Kd read?
Answer: The Kd was 21000 nM.

Question: For PLCFLQELFGGASLGGYCSG [S262], which Kd is on record?
Answer: Its Kd is 19000 nM.

Question: Which Kd does the source give for B12 here?
Answer: The Kd was 4800 nM.

Question: With NFYDWFVAELG [S243] as the binder, how does the Kd read?
Answer: Its Kd is 2000 nM.

Question: How did the Kd turn out when HDPFYSMMKSLLK [S120] was run?
Answer: Its Kd is 2000 nM.

Source: patent US20030236190A1 (published 2003)
